Data on 1 substance can be found in US20220372159A1.

The assay concerns the target CD84 on CD4+ T cells of wild-type mice (mouse) (UniProt Q18PI6). Description: cell-based or functional assay.
Sequence of UniProt Q18PI6 (Q18PI6 22-329): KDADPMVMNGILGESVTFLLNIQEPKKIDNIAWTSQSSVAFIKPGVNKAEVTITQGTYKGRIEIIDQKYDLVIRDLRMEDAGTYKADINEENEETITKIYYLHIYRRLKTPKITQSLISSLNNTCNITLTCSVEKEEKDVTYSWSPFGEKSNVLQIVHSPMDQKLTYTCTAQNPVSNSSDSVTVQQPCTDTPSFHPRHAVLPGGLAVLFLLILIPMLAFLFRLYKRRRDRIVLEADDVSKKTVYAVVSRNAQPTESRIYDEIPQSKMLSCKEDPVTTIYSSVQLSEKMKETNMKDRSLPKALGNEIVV

Take “platelet-derived soluble CD84 (sCD84) in the releasate of GPVI-stimulated WT mouse platelets (from UniProt Q18PI6 22-221) (receptor)”: the distance and speed of migrating T cells (migration assay with platelet releasate) came to 25%.
